T1: dimeric human BMPR1B (human, UniProt O00238 14-126, limits assumed)
T1 construct: Construct and dimerising part not described; also called Human Receptor BMPR1B
T1 sequence (looked up): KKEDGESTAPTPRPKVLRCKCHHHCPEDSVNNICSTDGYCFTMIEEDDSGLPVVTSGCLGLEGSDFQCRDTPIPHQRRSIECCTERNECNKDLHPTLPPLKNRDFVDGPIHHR

T2: dimeric mouse ACVRL1 (mouse, UniProt Q61288 23-119, limits assumed)
T2 construct: Construct and dimerising part not described; also called Mouse Receptor ACVRL1
T2 sequence (looked up): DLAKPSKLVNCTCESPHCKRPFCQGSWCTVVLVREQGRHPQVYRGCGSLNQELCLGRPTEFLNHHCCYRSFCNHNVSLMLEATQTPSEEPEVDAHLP

T3: full length human ACVR1 (amino acids 1-509, R206H, of accession #Q04771) on HEK293/BRE-luc/hACVR1-R206H-clone … (human, UniProt Q04771 21-509)
T3 construct: Expressed as amino acids 1-509; also called HEK293/hACVR1-R206H
T3 sequence: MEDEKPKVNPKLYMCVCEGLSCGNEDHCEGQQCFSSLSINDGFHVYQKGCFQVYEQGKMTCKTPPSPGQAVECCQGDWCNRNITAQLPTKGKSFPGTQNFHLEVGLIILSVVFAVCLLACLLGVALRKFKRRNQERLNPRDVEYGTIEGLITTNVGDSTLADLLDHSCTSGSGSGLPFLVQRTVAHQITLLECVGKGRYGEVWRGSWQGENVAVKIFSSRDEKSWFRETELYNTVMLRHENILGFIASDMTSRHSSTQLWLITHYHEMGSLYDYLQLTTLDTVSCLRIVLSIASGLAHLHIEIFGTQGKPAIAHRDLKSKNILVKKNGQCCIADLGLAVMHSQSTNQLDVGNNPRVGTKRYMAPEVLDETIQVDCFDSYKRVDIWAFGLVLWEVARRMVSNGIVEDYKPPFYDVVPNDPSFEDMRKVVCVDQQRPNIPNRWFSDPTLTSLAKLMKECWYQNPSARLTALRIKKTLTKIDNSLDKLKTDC


Assays:
dimeric human ACVRL1 = target: T4, dimeric human ACVRL1 (human, UniProt P37023 22-118, limits assumed); assay: SPR Biacore T200, mAb captured by anti-human Fab, 100 nM dimeric receptor injected, 25C
T4 construct: Construct and dimerising part not described; also called Human Receptor ACVRL1
T4 sequence (P37023 22-118 limits assumed): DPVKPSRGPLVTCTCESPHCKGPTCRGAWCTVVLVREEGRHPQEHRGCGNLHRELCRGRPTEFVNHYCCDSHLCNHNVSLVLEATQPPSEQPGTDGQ
Experimental: (§1) ACVR1 mAbs were tested for cross-reactivity to a panel of bone morphogenic protein type 1 receptors including human and mouse ACVR1, BMPR1A, and BMPR1B, as well as ACVRL1 on a Biacore T200 as follows. In order to measure the specificity of ACVR1 mAbs, ACVR1 mAbs were captured with anti-human Fab immobilized on a CM5 chip. 100 nM or 10 nM of dimeric human or mouse ACVR1, ACVRL1, BMPR1A or BMPR1B were injected at 30 μL/min for 2 min (duplicate injections) and the experiment was performed at 25° C. Binding of different receptors to the captured mAb was determined using Scrubber 2.0c software.

dimeric human BMPR1B = target: T1, dimeric human BMPR1B; assay: as above
Experimental: as §1

dimeric mouse ACVRL1 = target: T2, dimeric mouse ACVRL1; assay: as above
Experimental: as §1

[1] = target: T3, full length human ACVR1 (amino acids …); assay: flow cytometry, 70 nM antibody on HEK293/hACVR1-R206H cells, 4C
Experimental: To assess binding of the anti-ACVR1 antibodies of the invention to ACVR1 receptors expressed on the cell surface, 70 nM of the antibodies were incubated with 5×10⁵ cells/well at 4° C. for 30 minutes in PBS (without calcium and magnesium) containing 2% FBS (flow buffer). […] Cells were fixed using BD CytoFix™ (Becton Dickinson, # 554655) and analyzed on IQue® Flow Cytometer (Intellicyt®). Unstained and secondary antibody alone controls were also tested on cells. The results were analyzed using ForeCyt® (IntelliCyt®) software to determine the geometric means of fluorescence for viable cells and the binding ratio was calculated by normalizing the geometric mean value of the test condition by the geometric mean value of the corresponding unstained cells.

| 100 nM Human Receptor Binding (dimeric human ACVRL1) [RU] | 100 nM Human Receptor Binding (dimeric human BMPR1B) [RU] | 100 nM Mouse Receptor Binding (dimeric mouse ACVRL1) [RU] | MFI-Normalized to Unstained Control [1] [fold] | Binder |
| --- | --- | --- | --- | --- |
| 4 | 24 | 4 | 2000 | REGN 5166 (antibody, human IgG4 S228P, kappa, V domains shown, also called REGN 5166-L1) VH: QVQLVESGGGVVQPGRSLRLSCAASGFTFSAYWMHWVRQAPGKGLEWVAVISYDGSNKYYADSVKGRFTISRDHSKNTLYLQMNSLRAEDTAVYYCAKGDAYDSWRILLGGDYYGMDVWGQGTTVTVSS VL: EIVLTQSPGTLSLSPGERATLSCRASQSVSSSYLAWYQQKPGQAPRPLIYGASSRATGIPDRFSGSGSGTDFTLTISRLEPEDFAVYYCQQGGDAPPYTFGGGTKVEIKR |
| 2 | 20 | 3 | 2250 | REGN 5168 (antibody, human IgG4 S228P, kappa, V domains shown, also called REGN 5168-L1) VH: QVQLVQSGAEVKEPGASVKVSCKASGYTFAEYYMHWVRQAPGQGLEWMGAINPSGSHTSYAQKFQGRVTMTRDTSTSTVYMELSSLRSEDTAVYYCARSISGKRGGDYYGMDVWGQGTTVTVSS VL: DIQMTQSPSTLSASVGDRVTITCRASQSISSWLAWYQQKPGKAPKLLIYKASSLESGVPSRFSGSGSGTEFTLTISSLQPDDFATYYCQQYSIFPFTFGGGTKVEIKR |
| 1 | 10 | 1 | 1870 | REGN 5167 (antibody, human IgG4 S228P, kappa, V domains shown, also called REGN 5167-L1) VH: QLQLQESGPGLVKPSETLSLTCTVSGGSITSSSYYWAWIRQPPGKGLEWIGKIYYSGSTHYNPSLKSRVTISVDTSKNQFSLKLSSVTAADTAVYYCARVGGHGYGDSAGLAFDIWGQGTMVTVSS VL: EIVLTQSPGTLSLSPGERATLSCRASQSVSSAFLAWYQQKPGQAPRLLIYGASYRHTGIPDRFSGSGSGTDFTLTISRLEPEDFAVYYCQHYGVGPRTFGGGTKVEIKR |

From patent publication US20240150474A1 (Regeneron, published 2024)
